Tested on: Escherichia coli TOP10
Experiment: shrunken log2 fold change of peptide-encoding DNA abundance (4.5 h post-induction vs induction); higher = less antimicrobial activity (less host growth inhibition)
Settings: time post-induction: 4.5 h; library: site-saturation at positions 5, 18, 19, 20
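Also: peptides expressed intracellularly from a pBAD plasmid library in pooled LB shake-flask culture, induced with 0.3% L-arabinose, DNA abundance read by NGS, three biological replicates, DESeq2 with apeglm shrinkage.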

In order of rising “shrunken log2 fold change” value:
1. RRIRYRPPRLPRPRPRPSNSPRP  -1.15
2. RRIRYRPPRLPRPRPRPMVPPRP  -0.909
3. RRIRERPPRLPRPRPRPLCYPRP  -0.824
4. RRIRERPPRLPRPRPRPNNSPRP  -0.693
5. RRIRTRPPRLPRPRPRPFMYPRP  -0.576
6. RRIRTRPPRLPRPRPRPKECPRP  -0.503
7. RRIRTRPPRLPRPRPRPGMFPRP  -0.397
8. RRIRNRPPRLPRPRPRPKMKPRP  -0.286
9. RRIRTRPPRLPRPRPRPTSYPRP  -0.268
10. RRIRSRPPRLPRPRPRPDESPRP  -0.264
11. RRIRSRPPRLPRPRPRPFMCPRP  -0.255
12. RRIRLRPPRLPRPRPRPCRFPRP  -0.226
13. RRIRHRPPRLPRPRPRPQCHPRP  -0.202
14. RRIRYRPPRLPRPRPRPTEEPRP  -0.2
15. RRIRDRPPRLPRPRPRPTSYPRP  -0.189
16. RRIRLRPPRLPRPRPRPSNLPRP  -0.181
17. RRIRFRPPRLPRPRPRPHANPRP  -0.16
18. RRIRQRPPRLPRPRPRPRIYPRP  -0.159
19. RRIRVRPPRLPRPRPRPGDMPRP  -0.136
20. RRIRCRPPRLPRPRPRPYQCPRP  -0.133
21. RRIRHRPPRLPRPRPRPNQTPRP  -0.0854
22. RRIRERPPRLPRPRPRPWPFPRP  -0.0819
23. RRIRWRPPRLPRPRPRPRNMPRP  -0.0758
24. RRIRTRPPRLPRPRPRPDNSPRP  -0.0647
25. RRIRPRPPRLPRPRPRPHRTPRP  -0.0599
26. RRIRMRPPRLPRPRPRPMILPRP  -0.0491
27. RRIRVRPPRLPRPRPRPGELPRP  -0.0483
28. RRIRARPPRLPRPRPRPNTGPRP  -0.0394
29. RRIRLRPPRLPRPRPRPYVSPRP  -0.0356
30. RRIRLRPPRLPRPRPRPLEVPRP  -0.0281
31. RRIRLRPPRLPRPRPRPRVFPRP  -0.0171
32. RRIRPRPPRLPRPRPRPMQYPRP  -0.0088
33. RRIRFRPPRLPRPRPRPNDLPRP  0.00528
34. RRIRDRPPRLPRPRPRPCKFPRP  0.0155
35. RRIRPRPPRLPRPRPRPWIQPRP  0.0178
36. RRIRGRPPRLPRPRPRPCLYPRP  0.0217
37. RRIRMRPPRLPRPRPRPVQLPRP  0.0278
38. RRIRVRPPRLPRPRPRPFKSPRP  0.0446
39. RRIRARPPRLPRPRPRPVECPRP  0.0527
40. RRIRHRPPRLPRPRPRPVCEPRP  0.0977
41. RRIRRRPPRLPRPRPRPDEKPRP  0.135
42. RRIRWRPPRLPRPRPRPRFDPRP  0.147
43. RRIRPRPPRLPRPRPRPPVNPRP  0.15
44. RRIRRRPPRLPRPRPRPKMLPRP  0.161
45. RRIRTRPPRLPRPRPRPDAQPRP  0.193
46. RRIRCRPPRLPRPRPRPLRCPRP  0.198
47. RRIRMRPPRLPRPRPRPFLGPRP  0.254
48. RRIRARPPRLPRPRPRPKQEPRP  0.254
49. RRIRARPPRLPRPRPRPQGHPRP  0.273
50. RRIRTRPPRLPRPRPRPPHDPRP  0.275
51. RRIRARPPRLPRPRPRPTENPRP  0.381
52. RRIRDRPPRLPRPRPRPIAMPRP  0.384
53. RRIRRRPPRLPRPRPRPHAWPRP  0.438
54. RRIRWRPPRLPRPRPRPAHRPRP  0.49
55. RRIRLRPPRLPRPRPRPKRSPRP  0.558
56. RRIRNRPPRLPRPRPRPPGVPRP  0.653
57. RRIRSRPPRLPRPRPRPVWAPRP  0.67
58. RRIRFRPPRLPRPRPRPKPKPRP  0.848
59. RRIRGRPPRLPRPRPRPGPCPRP  0.854
60. RRIRRRPPRLPRPRPRPEAAPRP  1.31
